Paper PMC9638939

Test system: T1, hADAR2-R2D E488Q E488Q (Homo sapiens), P78563-2
T1 sequence: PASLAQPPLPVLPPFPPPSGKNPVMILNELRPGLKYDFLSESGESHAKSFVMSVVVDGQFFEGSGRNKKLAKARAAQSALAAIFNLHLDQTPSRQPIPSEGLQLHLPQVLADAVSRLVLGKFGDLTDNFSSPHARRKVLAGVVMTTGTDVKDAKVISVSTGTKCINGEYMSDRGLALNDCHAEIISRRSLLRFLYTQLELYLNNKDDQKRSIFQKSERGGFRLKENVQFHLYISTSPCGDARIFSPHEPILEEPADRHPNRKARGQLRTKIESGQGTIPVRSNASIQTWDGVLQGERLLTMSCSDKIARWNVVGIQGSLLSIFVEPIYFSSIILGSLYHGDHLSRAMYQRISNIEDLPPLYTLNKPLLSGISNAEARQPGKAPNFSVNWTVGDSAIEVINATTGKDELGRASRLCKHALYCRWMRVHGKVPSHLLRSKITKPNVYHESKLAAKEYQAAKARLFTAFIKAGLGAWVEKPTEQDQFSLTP
Experiment: EMSA
Details: N at position 13 of strand 1 = 8-azanebularine; EMSA: labeled strand hybridized to complement 1:3 in 1X TE pH 7.5; protein 0.25-256 nM (GG) or 0-260 nM (UA); binding buffer, salt and temperature not given in …

## GCUCGCGAUGCGNGAGGGCUCUGAUAGCUACG / CGUAGCUAUCAGAGCCCCCCGGCAUCGCGAGC [GLI1 (GG) 32mer, azaN]
  Kd: 6 nM

## GCUCGCGAUGCUNGAGGGCUCUGAUAGCUACG / CGUAGCUAUCAGAGCCCCCCAGCAUCGCGAGC [GLI1 (UA) 32mer, azaN]
  Kd: 0.9 nM
